Assay results from PMC3592575.

Target: α-synuclein (α-syn) (UniProt P37840)
Experiment: self-assembly into fibrils: ThT, monomer filtration, TEM
Conditions: reference: unphosphorylated WT α-syn (semisynthetic and recombinant); sites Y125

binding against the reference: same
Substance: α-synuclein (α-syn) (from UniProt P37840) semisynthetic pY125 α-syn
